Consider one molecule from doi:10.1101/2025.02.27.640495.

The target of this data set is Cro-6His (Cro-like repressor of phage phi10403S) (Listeria monocytogenes 10403S prophage …, UniProt A0A0H3GJS2 1-67). Description: EMSA.

B1: Cro operator probe, native (dsDNA)
DNA 1: TTATAGAGAAACAAAACGTTTCTTTTGG
DNA 2: CCAAAAGAAACGTTTTGTTTCTCTATAA
In general, Kd refers to the free concentration of one partner at which half of the binding sites on the other are occupied at equilibrium, for simple one-to-one binding. Higher therefore signals a looser complex. B1 showed a Kd of 321 nM.
